Experiment [1] concerns RPA70A (RPA70A181–304). Put plainly: Fluorescence polarization anisotropy (FPA) assay, FITC-labeled peptide + RPA70A. It is filed as binding. The following applies: 50 nM FITC-labeled peptide, 0–150 μM RPA70A, pH 7.4, 25 °C, anisotropy not saturated, not fitted. How it is done: RPA70N1–120 and RPA70A181–304 were expressed and purified as described previously ([5], [30]). ^15N-Labeled RPA70N was also expressed and purified with the same method using M9 medium. All of the synthesized peptides except for the FITC-labeled peptide were purchased from Lugen Sci (Gyeonggi-do, Korea). FITC-labeled peptides were purchased from AnyGen (Gwangju, Korea). Purchased peptides were dissolved in 20 mM HEPES, 100 mM NaCl, 2 mM DTT, pH 7.4, buffer to make a 2 mM stock and stored at −20 °C until use.
For FITC labeling, a 6-aminocaproic acid (6-aminohexanoic acid) spacer was used. […] The emission polarization anisotropy was calculated by referring to a previous publication ([5]). The fluorescence was measured using BioTek Cytation5 and GENE5 software (GIST, Gwangju) with excitation and emission wavelengths of 485 and 528 nm, respectively. […] All experiments were repeated three times, and dissociation constants (Kd) were calculated using the “one site–specific” fitting model of the GraphPad software. The equation used in the fitting is as follows, (Eq. 1) y=Bmax×X/Kd+X where y is the fluorescence anisotropy, Bmax is the maximum specific binding, Kd is the equilibrium binding constant, and X is the concentration of RPA. […] Equilibrium fluorescence measurements were performed in the same way as described above. […]
(In general: In fluorescence polarisation assays a small probe gives low polarisation when free and higher when bound to something large.)

Experiment [2] has as its system RPA70N–BLM peptide complex. Briefly: Competitive FPA assay, unlabeled pmRPA32 peptide against FITC-labeled BLM peptide on RPA70N. It is filed as binding. The following applies: 0–250 μM unlabeled pmRPA32 peptide; 6 μM (BLM153-165) or 13 μM (BLM290-301) RPA70N; 500 nM FITC-labeled BLM peptide; repeated three times; Fig. S4. How it is done: For FITC labeling, a 6-aminocaproic acid (6-aminohexanoic acid) spacer was used. Increasing concentrations (0–150 μM) of RPA70N or RPA70A were prepared in an assay buffer of 20 mM HEPES, 100 mM NaCl, 2 mM DTT, pH 7.4, in Corning 96-well black flat-bottom plates (polystyrene, nontreated). To each well, FITC-RPA32 peptide was added to a final concentration of 50 nM, and the plates were incubated on a shaker for 1 h at 25 °C. The total volume of the reaction sample was 50 μl. The emission polarization anisotropy was calculated by referring to a previous publication ([5]). The fluorescence was measured using BioTek Cytation5 and GENE5 software (GIST, Gwangju) with excitation and emission wavelengths of 485 and 528 nm, respectively. […] All experiments were repeated three times, and dissociation constants (Kd) were calculated using the “one site–specific” fitting model of the GraphPad software. The equation used in the fitting is as follows, (Eq. 1) y=Bmax×X/Kd+X where y is the fluorescence anisotropy, Bmax is the maximum specific binding, Kd is the equilibrium binding constant, and X is the concentration of RPA. […] Equilibrium fluorescence measurements were performed in the same way as described above. […]
Competitive fluorescence polarization anisotropy of BLM peptide, RPA70N, and pmRPA32 peptide. […]

The target of experiment [3] is T1, RPA70N (N-terminal domain of RPA70, RPA70N1–120) (Homo sapiens, UniProt P27694).
T1 construct: RPA70N1–120 and RPA70A181–304 were expressed and purified as described previously; made in house
Conditions: RPA70N binding, cited from earlier work.

Experiment [4] concerns the target T2, RPA70N_(1–120), N-terminal domain of RPA70 (DBD-F) (UniProt P27694 1-120).
T2 construct: Replication protein A 70-kDa subunit (RPA70), N-terminal domain (DBD-F), residues 1-120; Uniformly 15N-labelled in the NMR titrations, unlabelled in the FPA assays; also called 15N-labeled RPA70N; source: 15N-labeled form by the same method using M9 medium
Briefly: fluorescence polarisation; FPA; 0–150 μM RPA70N or RPA70A titrated to 50 nM FITC-labeled peptide; 20 mM HEPES, 100 mM NaCl, 2 mM DTT, pH 7.4; 1 h at 25 °C; one site–specific fit. The following applies: both partners purified.

For experiment [5], the target named is T2, RPA70N_(1–120), N-terminal domain of …. Put plainly: fluorescence polarisation; competitive FPA; 0–250 μM unlabeled pmRPA32 peptide added to 6 μM (for BLM 153-165) or 13 μM (for BLM 290-301) RPA70N and 500 nM FITC-labeled BLM peptide; 20 mM HEPES, 100 mM NaCl, 2 mM DTT, pH 7.4. Conditions: both partners purified.
The target is the same in experiment [6]. Briefly: fluorescence polarisation; FPA; 0–150 μM RPA70N or RPA70A titrated to 50 nM FITC-labeled peptide; 20 mM HEPES, 100 mM NaCl, 2 mM DTT, pH 7.4; 1 h at 25 °C; one site–specific fit. The following applies: both partners purified. The source holds these as a separate data set.
The mark [7] stands for this setting: measured with the same FPA method.

Read-outs that look alike come from different tables or passages of the source. Where no end group is shown, it is not given here.

With `C[C@H](NC(=O)CNC(=O)CNC(=O)[C@H](Cc1ccc(O)cc1)NC(=O)[C@H](CC(=O)O)NC(=O)[C@H](CC(=O)O)NC(=O)[C@H](CC(=O)O)NC(=O)CNC(=O)[C@H](Cc1ccc(O)cc1)NC(=O)[C@H](CC(=O)O)NC(=O)CCCCCNC(=S)Nc1ccc2c(c1)C(=O)OC21c2ccc(O)cc2Oc2cc(O)ccc21)C(=O)NCC(=O)NCC(=O)N[C@@H](Cc1ccc(O)cc1)C(=O)N[C@@H](CC(=O)O)C(=O)N[C@@H](CCC(N)=O)C(=O)N[C@@H](CC(=O)O)C(=O)N1CCC[C@H]1C(=O)NCC(=O)NCC(=O)N[C@@H](Cc1ccccc1)C(=O)NCC(=O)N[C@@H](CC(=O)O)C(=O)N1CCC[C@H]1C(=O)N[C@@H](C)C(=O)N1CCC[C@H]1C(=O)N[C@@H](CC(=O)O)C(=O)O` [pmRPA32], in experiment [1], the “Binding to RPA70A (in words)” value is listed as “does not bind”. Moreover, the “Competition with FITC-labeled BLM peptide for RPA70N” value in experiment [2] is reported as “did not compete with BLM peptide”.
Usually Kd stands for the free concentration of one partner at which half of the binding sites on the other are occupied at equilibrium, for simple one-to-one binding. Regarding “ATRIP54–68: RPA70N-binding sequence of ATRIP (DFTADDLEELDTLAS; UniProt Q8WXE1 54-68, looked up, fragment)”, the Kd in experiment [3] is 28.6 ± 3.1 µM.
Regarding “BLM153–165: acidic RPA70N-binding peptide from the N-terminal region of Bloom syndrome protein (DWDDMDDFDTSET; also: FITC via 6-aminohexanoic acid spacer, end not given here)”, in experiment [3] (setting [7]), the Kd is 5.76 ± 0.86 µM.
“BLM290–301: acidic RPA70N-binding peptide from the N-terminal region of Bloom syndrome protein (EFDDDDYDTDFV; also: FITC via 6-aminohexanoic acid spacer, end not given here)”: the dissociation constant (Kd) in experiment [3] (setting [7]) was 13.5 ± 2.4 µM.
For “MRE11_539–553: RPA70N-binding sequence of MRE11 (AFSADDLMSIDLAEQ; UniProt P49959 539-553, looked up, fragment)”, in experiment [3], the Kd is 65.8 ± 23.7 µM.
In the case of “RAD9_297–311: RPA70N-binding sequence of RAD9 (DFANDDIDSYMIAME; UniProt Q99638 297-311, looked up, fragment)”, in experiment [3], the Kd is 51.4 ± 8.9 µM.
“p53_44–58: RPA70N-binding sequence of p53”: the Kd in experiment [3] was 99.9 ± 8.4 µM.
DYGDDDYGGAGGYDQDPGGAGDPAPD (peptide, UniProt P15927 8-33, looked up, also: FITC with 6-aminohexanoic acid spacer, end not given here) [FITC-labeled pmRPA32-F27A peptide] showed a Kd in experiment [4] of 21.7 ± 0.5 µM.
On to DAGDDDYGGAGGYDQDPGGFGDPAPD (peptide, UniProt P15927 8-33, looked up, also: FITC with 6-aminohexanoic acid spacer, end not given here) [FITC-labeled pmRPA32-Y9A peptide], for which, in experiment [4], binding was put at a Kd of 40 ± 0.7 µM.
The molecule DYGDDDAGGAGGYDQDPGGFGDPAPD (peptide, UniProt P15927 8-33, looked up, also: FITC with 6-aminohexanoic acid spacer, end not given here) [FITC-labeled pmRPA32-Y14A peptide] registered a Kd in experiment [4] of 37 ± 0.6 µM.
For DYGDDDYGGAGGADQDPGGFGDPAPD (peptide, UniProt P15927 8-33, looked up, also: FITC with 6-aminohexanoic acid spacer, end not given here) [FITC-labeled pmRPA32-Y20A peptide], the Kd in experiment [4] came to 24.5 ± 0.7 µM.

B1: FITC-labeled BLM_(153-165) peptide (peptide, UniProt P54132 153-165, looked up)
peptide: DWDDMDDFDTSET
modifications: also: FITC via 6-aminohexanoic acid spacer, end not given here
notes: also called BLM peptide; source: synthetic peptide, bought: AnyGen
Take B1: the binding result in experiment [5] is given as “binds”.
Molecule DYGDDDYGGAGGYDQDPGGFGDPAPD (peptide, UniProt P15927 8-33, looked up, also: FITC with 6-aminohexanoic acid spacer, end not given here) [FITC-labeled pmRPA32_(8–33) peptide (phosphomimetic RPA32, eight aspartic acids)] showed a Kd in experiment [6] of 21.5 ± 0.6 µM.

B2: FITC-labeled BLM_(290-301) peptide (peptide, UniProt P54132 290-301, looked up)
peptide: EFDDDDYDTDFV
modifications: also: FITC via 6-aminohexanoic acid spacer, end not given here
notes: as for B1
As for B2, in experiment [5], the binding result is recorded as “binds”.

The values above are taken from paper PMC7939470 (The Journal of Biological Chemistry, 2021).
